Test results taken from the RNAGym collection of RNA variant scans (doi:10.1093/molbev/msab373).

B1: Azoarcus group I ribozyme (parent)
chain: GUGCCUUGCGCCGGGAAACCACGCAAGGGAUGGUGUCAAAUUCGGCGAAACCUAAGCGCCCGCCCGGGCGUAUGGCAACGCCGAGCCAAGCUUCGGCGCCUGCGCCGAUGAAGGUGUAGAGACUAGACGGCACCCACCUAAGGCAAACGCUAUGGUGAAGGCAUAGUCCAGGGAGUGGCGAAAGUCACACAAACCGG

Variants of: B1
Experiment: reverse-splicing fitness (ratio to wild type); higher = more active; in vitro selection; Mg2+ level not given
How it was run: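 An in vitro group I ribozyme library with randomized positions was T7-transcribed and gel-purified. In triplicate, 10 pmol RNA in EPPS pH 7.5 was reacted with 50 pmoles of a 30-nt RNA substrate for 1 h at 37 °C across several added MgCl2 levels (1–48 mM), then stopped with EDTA. Products were reverse transcribed from a substrate-complementary primer, PCR-amplified and sequenced (HiSeq 4000). Fitness is a variant's read proportion after selection over that before, normalised to wild type.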

| Variant | reverse-splicing fitness |
| --- | --- |
| GUGCCUUGCGCCGGGAAACCACGCAAGGGAUGGUGUCAAAUUCGGCGAAACCUAAGCGCCCGCCCGGGCGUAUGGCAACGCGGAGCCAAGCUUCGGCGCCUGCGCCGAUGGAGGUGUAGCGACUAGACGGCACCCACCUAAGGCUAACGAUAUGGUGAAGGCAUAGUCUAGGGAGAGGCGAAAGUCACACAAACCGG | 0.0146 |
| GUGCCUUGCGCCGGGAAACCACGCAAGGGAUGGUGUCAAAUUCGGCGAAACCUAAGCGCCCGCCCGGGCGUAUGGCAACGCGGAGCCAAGCUUCGGCGCCUGCGCCGAUGGAGGUGUAGCGACUAGACGGCACCCACCUAAGGCUAACGAUAUGGUGAAGGCAUAGUCGAGGGAGCGGCGAAAGUCACACAAACCGG | 0.0209 |
| GUGCCUUGCGCCGGGAAACCACGCAAGGGAUGGUGUCAAAUUCGGCGAAACCUAAGCGCCCGCCCGGGCGUAUGGCAACGCGGAGCCAAGCUUCGGCGCCUGCGCCGAUGGAGGUGUAGCGACUAGACGGCACCCACCUAAGGCUAACGAUAUGGUGAAGGCAUAGUCGAGGGAGGGGCGAAAGUCACACAAACCGG | 0.00622 |
| GUGCCUUGCGCCGGGAAACCACGCAAGGGAUGGUGUCAAAUUCGGCGAAACCUAAGCGCCCGCCCGGGCGUAUGGCAACGCGGAGCCAAGCUUCGGCGCCUGCGCCGAUGGAGGUGUAGCGACUAGACGGCACCCACCUAAGGCUAACGAUAUGGUGAAGGCAUAGUCGAGGGAGAGGCGAAAGUCACACAAACCGG | 0.0168 |
| GUGCCUUGCGCCGGGAAACCACGCAAGGGAUGGUGUCAAAUUCGGCGAAACCUAAGCGCCCGCCCGGGCGUAUGGCAACGCGGAGCCAAGCUUCGGCGCCUGCGCCGAUGGAGGUGUAGCGACUAGACGGCACCCACCUAAGGCGAACGCUAUGGUGAAGGCAUAGUCAAGGGAGGGGCGAAAGUCACACAAACCGG | 0.00503 |
| GUGCCUUGCGCCGGGAAACCACGCAAGGGAUGGUGUCAAAUUCGGCGAAACCUAAGCGCCCGCCCGGGCGUAUGGCAACGCGGAGCCAAGCUUCGGCGCCUGCGCCGAUGGAGGUGUAGCGACUAGACGGCACCCACCUAAGGCGAACGCUAUGGUGAAGGCAUAGUCAAGGGAGCGGCGAAAGUCACACAAACCGG | 0.0188 |
| GUGCCUUGCGCCGGGAAACCACGCAAGGGAUGGUGUCAAAUUCGGCGAAACCUAAGCGCCCGCCCGGGCGUAUGGCAACGCGGAGCCAAGCUUCGGCGCCUGCGCCGAUGGAGGUGUAGCGACUAGACGGCACCCACCUAAGGCGAACGCUAUGGUGAAGGCAUAGUCAAGGGAGAGGCGAAAGUCACACAAACCGG | 0.0151 |
| GUGCCUUGCGCCGGGAAACCACGCAAGGGAUGGUGUCAAAUUCGGCGAAACCUAAGCGCCCGCCCGGGCGUAUGGCAACGCGGAGCCAAGCUUCGGCGCCUGCGCCGAUGGAGGUGUAGCGACUAGACGGCACCCACCUAAGGCUAACGCUAUGGUGAAGGCAUAGUCCAGGGAGUGGCGAAAGUCACACAAACCGG | 0.0901 |
| GUGCCUUGCGCCGGGAAACCACGCAAGGGAUGGUGUCAAAUUCGGCGAAACCUAAGCGCCCGCCCGGGCGUAUGGCAACGCGGAGCCAAGCUUCGGCGCCUGCGCCGAUGGAGGUGUAGCGACUAGACGGCACCCACCUAAGGCGAACGCUAUGGUGAAGGCAUAGUCUAGGGAGGGGCGAAAGUCACACAAACCGG | 0.00492 |
| GUGCCUUGCGCCGGGAAACCACGCAAGGGAUGGUGUCAAAUUCGGCGAAACCUAAGCGCCCGCCCGGGCGUAUGGCAACGCGGAGCCAAGCUUCGGCGCCUGCGCCGAUGGAGGUGUAGCGACUAGACGGCACCCACCUAAGGCGAACGCUAUGGUGAAGGCAUAGUCUAGGGAGAGGCGAAAGUCACACAAACCGG | 0.0142 |
| GUGCCUUGCGCCGGGAAACCACGCAAGGGAUGGUGUCAAAUUCGGCGAAACCUAAGCGCCCGCCCGGGCGUAUGGCAACGCGGAGCCAAGCUUCGGCGCCUGCGCCGAUGGAGGUGUAGCGACUAGACGGCACCCACCUAAGGCGAACGCUAUGGUGAAGGCAUAGUCUAGGGAGCGGCGAAAGUCACACAAACCGG | 0.0147 |
| GUGCCUUGCGCCGGGAAACCACGCAAGGGAUGGUGUCAAAUUCGGCGAAACCUAAGCGCCCGCCCGGGCGUAUGGCAACGCGGAGCCAAGCUUCGGCGCCUGCGCCGAUGGAGGUGUAGCGACUAGACGGCACCCACCUAAGGCGAACGCUAUGGUGAAGGCAUAGUCCAGGGAGAGGCGAAAGUCACACAAACCGG | 0.0236 |
| GUGCCUUGCGCCGGGAAACCACGCAAGGGAUGGUGUCAAAUUCGGCGAAACCUAAGCGCCCGCCCGGGCGUAUGGCAACGCGGAGCCAAGCUUCGGCGCCUGCGCCGAUGGAGGUGUAGCGACUAGACGGCACCCACCUAAGGCGAACGCUAUGGUGAAGGCAUAGUCCAGGGAGCGGCGAAAGUCACACAAACCGG | 0.0418 |
| GUGCCUUGCGCCGGGAAACCACGCAAGGGAUGGUGUCAAAUUCGGCGAAACCUAAGCGCCCGCCCGGGCGUAUGGCAACGCGGAGCCAAGCUUCGGCGCCUGCGCCGAUGGAGGUGUAGCGACUAGACGGCACCCACCUAAGGCGAACGCUAUGGUGAAGGCAUAGUCCAGGGAGGGGCGAAAGUCACACAAACCGG | 0.00851 |
| GUGCCUUGCGCCGGGAAACCACGCAAGGGAUGGUGUCAAAUUCGGCGAAACCUAAGCGCCCGCCCGGGCGUAUGGCAACGCGGAGCCAAGCUUCGGCGCCUGCGCCGAUGGAGGUGUAGCGACUAGACGGCACCCACCUAAGGCUAACGAUAUGGUGAAGGCAUAGUCCAGGGAGUGGCGAAAGUCACACAAACCGG | 0.0142 |
